Reference: patent US20250073311A1, “DOSAGE REGIME” (ZEALAND PHARMA A/S, priority 2021, published 2025)
Numbered stars: 1 amine (or outer) side, 2 acyl side, 3 side chain; on linkers, the order of the positions; unused ones are H or OH. Square brackets hold non-standard residues; d marks the D form. Side chains are listed from the residue outwards. * marks the point of attachment. C20 diacid = O=C(O)CCCCCCCCCCCCCCCCCCC(=O)*; C18 diacid = O=C(O)CCCCCCCCCCCCCCCCC(=O)*; γGlu = O=C(O)[C@H](CCC(=O)[*:2])N[*:1]; KEK = Lys-Glu-Lys peptide sequence; AEEA = NCCOCCOCC(=O)O; Aib = CC(C)(N)C(=O)O

T1: human GLP-2 receptor (hGLP2-R) (human, UniProt O95838)
T1 sequence: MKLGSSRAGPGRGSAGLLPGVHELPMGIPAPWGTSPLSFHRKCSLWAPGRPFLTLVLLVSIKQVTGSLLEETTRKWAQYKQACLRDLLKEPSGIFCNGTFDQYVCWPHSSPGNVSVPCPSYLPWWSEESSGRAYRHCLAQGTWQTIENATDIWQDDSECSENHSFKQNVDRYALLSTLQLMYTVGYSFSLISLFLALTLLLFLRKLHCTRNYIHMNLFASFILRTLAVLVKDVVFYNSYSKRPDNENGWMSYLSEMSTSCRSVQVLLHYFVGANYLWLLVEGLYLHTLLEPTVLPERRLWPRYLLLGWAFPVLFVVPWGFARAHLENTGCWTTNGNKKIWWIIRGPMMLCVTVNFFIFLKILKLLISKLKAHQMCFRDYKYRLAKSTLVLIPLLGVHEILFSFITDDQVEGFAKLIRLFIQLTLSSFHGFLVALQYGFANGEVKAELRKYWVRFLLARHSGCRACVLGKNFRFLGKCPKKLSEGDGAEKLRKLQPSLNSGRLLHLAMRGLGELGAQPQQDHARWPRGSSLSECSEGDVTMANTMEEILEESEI

B1: Compound 3 (peptide)
peptide: H-H[Aib]EGTFTSELATILDK([γGlu-C18 diacid])EAARDFIAWLIEHKITD-OH
SMILES: CC[C@H](C)[C@H](NC(=O)[C@H](Cc1ccccc1)NC(=O)[C@H](CC(=O)O)NC(=O)[C@H](CCCNC(=N)N)NC(=O)[C@H](C)NC(=O)[C@H](C)NC(=O)[C@H](CCC(=O)O)NC(=O)[C@H](CCCCNC(=O)CC[C@H](NC(=O)CCCCCCCCCCCCCCCCC(=O)O)C(=O)O)NC(=O)[C@H](CC(=O)O)NC(=O)[C@H](CC(C)C)NC(=O)[C@@H](NC(=O)[C@@H](NC(=O)[C@H](C)NC(=O)[C@H](CC(C)C)NC(=O)[C@H](CCC(=O)O)NC(=O)[C@H](CO)NC(=O)[C@@H](NC(=O)[C@H](Cc1ccccc1)NC(=O)[C@@H](NC(=O)CNC(=O)[C@H](CCC(=O)O)NC(=O)C(C)(C)NC(=O)[C@@H](N)Cc1c[nH]cn1)[C@@H](C)O)[C@@H](C)O)[C@@H](C)O)[C@@H](C)CC)C(=O)N[C@@H](C)C(=O)N[C@@H](Cc1c[nH]c2ccccc12)C(=O)N[C@@H](CC(C)C)C(=O)N[C@H](C(=O)N[C@@H](CCC(=O)O)C(=O)N[C@@H](Cc1c[nH]cn1)C(=O)N[C@@H](CCCCN)C(=O)N[C@H](C(=O)N[C@H](C(=O)N[C@@H](CC(=O)O)C(=O)O)[C@@H](C)O)[C@@H](C)CC)[C@@H](C)CC
B2: Compound 1 (peptide)
peptide: H-H[Aib]EGTFSSELATILDK([γGlu-C18 diacid])EAARDFIAWLIEHKITD-OH
SMILES: CC[C@H](C)[C@H](NC(=O)[C@H](Cc1ccccc1)NC(=O)[C@H](CC(=O)O)NC(=O)[C@H](CCCNC(=N)N)NC(=O)[C@H](C)NC(=O)[C@H](C)NC(=O)[C@H](CCC(=O)O)NC(=O)[C@H](CCCCNC(=O)CC[C@H](NC(=O)CCCCCCCCCCCCCCCCC(=O)O)C(=O)O)NC(=O)[C@H](CC(=O)O)NC(=O)[C@H](CC(C)C)NC(=O)[C@@H](NC(=O)[C@@H](NC(=O)[C@H](C)NC(=O)[C@H](CC(C)C)NC(=O)[C@H](CCC(=O)O)NC(=O)[C@H](CO)NC(=O)[C@H](CO)NC(=O)[C@H](Cc1ccccc1)NC(=O)[C@@H](NC(=O)CNC(=O)[C@H](CCC(=O)O)NC(=O)C(C)(C)NC(=O)[C@@H](N)Cc1c[nH]cn1)[C@@H](C)O)[C@@H](C)O)[C@@H](C)CC)C(=O)N[C@@H](C)C(=O)N[C@@H](Cc1c[nH]c2ccccc12)C(=O)N[C@@H](CC(C)C)C(=O)N[C@H](C(=O)N[C@@H](CCC(=O)O)C(=O)N[C@@H](Cc1c[nH]cn1)C(=O)N[C@@H](CCCCN)C(=O)N[C@H](C(=O)N[C@H](C(=O)N[C@@H](CC(=O)O)C(=O)O)[C@@H](C)O)[C@@H](C)CC)[C@@H](C)CC
B3: Compound 2 (peptide)
peptide: H-H[Aib]EGSFTSELATILDK([γGlu-C18 diacid])EAARDFIAWLIEHKITD-OH
SMILES: CC[C@H](C)[C@H](NC(=O)[C@H](Cc1ccccc1)NC(=O)[C@H](CC(=O)O)NC(=O)[C@H](CCCNC(=N)N)NC(=O)[C@H](C)NC(=O)[C@H](C)NC(=O)[C@H](CCC(=O)O)NC(=O)[C@H](CCCCNC(=O)CC[C@H](NC(=O)CCCCCCCCCCCCCCCCC(=O)O)C(=O)O)NC(=O)[C@H](CC(=O)O)NC(=O)[C@H](CC(C)C)NC(=O)[C@@H](NC(=O)[C@@H](NC(=O)[C@H](C)NC(=O)[C@H](CC(C)C)NC(=O)[C@H](CCC(=O)O)NC(=O)[C@H](CO)NC(=O)[C@@H](NC(=O)[C@H](Cc1ccccc1)NC(=O)[C@H](CO)NC(=O)CNC(=O)[C@H](CCC(=O)O)NC(=O)C(C)(C)NC(=O)[C@@H](N)Cc1c[nH]cn1)[C@@H](C)O)[C@@H](C)O)[C@@H](C)CC)C(=O)N[C@@H](C)C(=O)N[C@@H](Cc1c[nH]c2ccccc12)C(=O)N[C@@H](CC(C)C)C(=O)N[C@H](C(=O)N[C@@H](CCC(=O)O)C(=O)N[C@@H](Cc1c[nH]cn1)C(=O)N[C@@H](CCCCN)C(=O)N[C@H](C(=O)N[C@H](C(=O)N[C@@H](CC(=O)O)C(=O)O)[C@@H](C)O)[C@@H](C)CC)[C@@H](C)CC

Target: T1, human GLP-2 receptor (hGLP2-R)
Experiment: cell-based or functional assay

| Binder | EC50 GLP-2 (nM), cAMP AlphaScreen [nM] |
| --- | --- |
| H-H[Aib]EGSFTSELATILDK([AEEA-KEK-γGlu-C20 diacid])KAARDFIAWLIEHKITD-OH [Compound 59] | 0.11 |
| H-H[Aib]EGSFTSELATILDAK([AEEA-KEK-γGlu-C20 diacid])AARDFIAWLIEHKITD-OH [Compound 62] | 0.15 |
| H-H[Aib]EGTFSSELATILDK([AEEA-KEK-γGlu-C18 diacid])QAARDFIAWLIQHKITD-OH [Compound 47] | 0.048 |
| B1 | 0.33 |
| H-H[Aib]EGSFTSELATILDAK([AEEA-AEEA-KEK-γGlu-C20 diacid])AARDFIAWLIEHKITD-OH [Compound 63] | 0.17 |
| H-H[Aib]EGSFTSELATILDK([AEEA-KEK-γGlu-C20 diacid])QAARDFIAWLIEHKITD-OH [Compound 57] | 0.083 |
| B2 | 0.35 |
| H-H[Aib]EGTFTSELATILDK([AEEA-KEK-γGlu-C20 diacid])QAARDFIAWLIQHKITD-OH [Compound 52] | 0.075 |
| H-H[Aib]EGTFTSELATILDK([AEEA-KEK-γGlu-C20 diacid])QAARDFIAWLIEHKITD-OH [Compound 56] | 0.076 |
| H-H[Aib]EGTFSSELATILDK([AEEA-KEK-γGlu-C20 diacid])QAARDFIAWLIQHKITD-OH [Compound 48] | 0.054 |
| H-H[Aib]EGSFTSELATILDK([AEEA-AEEA-KEK-γGlu-C20 diacid])QAARDFIAWLIEHKITD-OH [Compound 60] | 0.074 |
| H-H[Aib]EGSFTSELATILEGK([AEEA-KEK-γGlu-C20 diacid])AARDFIAWLIEHKITD-OH [Compound 61] | 0.2 |
| H-H[Aib]EGTFSSELATILDK([AEEA-KEK-γGlu-C18 diacid])QAARDFIAWLIEHKITD-OH [Compound 49] | 0.044 |
| H-H[Aib]EGSFTSEK([AEEA-AEEA-KEK-γGlu-C20 diacid])ATILDEQAARDFIAWLIEHKITD-OH [Compound 55] | 0.78 |
| H-H[Aib]EGTFTSELATILDK([KEK-γGlu-C20 diacid])QAARDFIAWLIQHKITD-OH [Compound 51] | 0.18 |
| B3 | 0.25 |
| H-H[Aib]EGTFTSEK([AEEA-KEK-γGlu-C20 diacid])ATILDEQAARDFIAWLIEHKITD-OH [Compound 54] | 0.99 |
| H-H[Aib]EGTFSSELATILDK([AEEA-KEK-γGlu-C20 diacid])QAARDFIAWLIEHKITD-OH [Compound 50] | 0.056 |
| H-H[Aib]EGSFTSELATILDK([AEEA-KEK-γGlu-C20 diacid])QAARDFIAWLIAHKITD-OH [Compound 58] | 0.09 |
| H-H[Aib]EGSFTSEK([AEEA-KEK-γGlu-C20 diacid])ATILDEQAARDFIAWLIEHKITD-OH [Compound 53] | 0.24 |

Target: human glucagon-like peptide 1 receptor (GLP-1R) (human, UniProt P43220)
Experiment: cell-based or functional assay

| Binder | EC50 GLP-1 (nM), cAMP AlphaScreen [nM] |
| --- | --- |
| H-H[Aib]EGSFTSELATILDK([AEEA-KEK-γGlu-C20 diacid])KAARDFIAWLIEHKITD-OH [Compound 59] | 0.088 |
| H-H[Aib]EGSFTSELATILDAK([AEEA-KEK-γGlu-C20 diacid])AARDFIAWLIEHKITD-OH [Compound 62] | 0.27 |
| H-H[Aib]EGTFSSELATILDK([AEEA-KEK-γGlu-C18 diacid])QAARDFIAWLIQHKITD-OH [Compound 47] | 0.44 |
| B1 | 0.042 |
| H-H[Aib]EGSFTSELATILDAK([AEEA-AEEA-KEK-γGlu-C20 diacid])AARDFIAWLIEHKITD-OH [Compound 63] | 0.31 |
| H-H[Aib]EGSFTSELATILDK([AEEA-KEK-γGlu-C20 diacid])QAARDFIAWLIEHKITD-OH [Compound 57] | 0.093 |
| B2 | 0.63 |
| H-H[Aib]EGTFTSELATILDK([AEEA-KEK-γGlu-C20 diacid])QAARDFIAWLIQHKITD-OH [Compound 52] | 0.02 |
| H-H[Aib]EGTFTSELATILDK([AEEA-KEK-γGlu-C20 diacid])QAARDFIAWLIEHKITD-OH [Compound 56] | 0.033 |
| H-H[Aib]EGTFSSELATILDK([AEEA-KEK-γGlu-C20 diacid])QAARDFIAWLIQHKITD-OH [Compound 48] | 0.47 |
| H-H[Aib]EGSFTSELATILDK([AEEA-AEEA-KEK-γGlu-C20 diacid])QAARDFIAWLIEHKITD-OH [Compound 60] | 0.097 |
| H-H[Aib]EGSFTSELATILEGK([AEEA-KEK-γGlu-C20 diacid])AARDFIAWLIEHKITD-OH [Compound 61] | 0.13 |
| H-H[Aib]EGTFSSELATILDK([AEEA-KEK-γGlu-C18 diacid])QAARDFIAWLIEHKITD-OH [Compound 49] | 0.27 |
| H-H[Aib]EGSFTSEK([AEEA-AEEA-KEK-γGlu-C20 diacid])ATILDEQAARDFIAWLIEHKITD-OH [Compound 55] | 0.11 |
| H-H[Aib]EGTFTSELATILDK([KEK-γGlu-C20 diacid])QAARDFIAWLIQHKITD-OH [Compound 51] | 0.02 |
| B3 | 0.13 |
| H-H[Aib]EGTFTSEK([AEEA-KEK-γGlu-C20 diacid])ATILDEQAARDFIAWLIEHKITD-OH [Compound 54] | 0.034 |
| H-H[Aib]EGTFSSELATILDK([AEEA-KEK-γGlu-C20 diacid])QAARDFIAWLIEHKITD-OH [Compound 50] | 0.31 |
| H-H[Aib]EGSFTSELATILDK([AEEA-KEK-γGlu-C20 diacid])QAARDFIAWLIAHKITD-OH [Compound 58] | 0.089 |
| H-H[Aib]EGSFTSEK([AEEA-KEK-γGlu-C20 diacid])ATILDEQAARDFIAWLIEHKITD-OH [Compound 53] | 0.076 |
